According to US20250188179A1 (ADAGENE PTE, published 2025):

T1: His-tagged recombinant human FcγRIIb (human, UniProt P31994 46-217, limits assumed)
T1 construct: His-tagged; also called hFcγRIIb
T1 sequence (looked up): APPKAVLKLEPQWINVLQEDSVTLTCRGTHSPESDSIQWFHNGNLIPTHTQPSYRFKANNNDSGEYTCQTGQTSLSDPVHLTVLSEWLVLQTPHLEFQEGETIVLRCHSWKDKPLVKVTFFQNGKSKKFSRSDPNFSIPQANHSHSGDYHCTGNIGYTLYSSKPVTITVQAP

T2: His-tagged recombinant human FcγRIIa (human, UniProt P12318 36-218, limits assumed)
T2 construct: His-tagged; also called hFcγRIIa
T2 sequence (looked up): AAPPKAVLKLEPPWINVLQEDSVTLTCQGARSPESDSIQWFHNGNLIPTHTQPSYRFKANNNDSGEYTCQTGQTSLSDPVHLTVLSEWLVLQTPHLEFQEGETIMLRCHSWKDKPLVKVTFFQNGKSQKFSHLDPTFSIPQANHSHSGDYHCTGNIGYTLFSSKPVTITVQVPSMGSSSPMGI


Columns and labels:
[1] = target: T3, full-length human CD137 with C-terminal 3xMyc tag displayed on yeast cells (human, UniProt Q07011 24-255); experiment: FACS titration on yeast displaying full-length hCD137-3xMyc, no protease; data batch 4
T3 construct: whole, on cells; not used; also called hCD137; not shown: C-terminal 3xMyc tag

[2] = target: T3, full-length human CD137 with C-terminal …; experiment: KD divided by KD of parental antibody (TY21242 or TY23310); FACS on yeast hCD137; data batch 4
[3] = target: T4, hCD137 (antigen of the ELISA and FACS assays of Example 2) (human, UniProt Q07011 24-186, limits assumed); experiment: ELISA on hCD137, absorbance at 450 nm; masked antibody without MMP9 treatment
T4 construct: also called human CD137

[4] = target: T4, hCD137 (antigen of the ELISA and FACS …); experiment: ELISA on hCD137
[5] = target: T4, hCD137 (antigen of the ELISA and FACS …); experiment: FACS KD relative to parental antibody TY24122
[6] = target: T4, hCD137 (antigen of the ELISA and FACS …); experiment: ELISA EC50 relative to parental antibody TY24122
[7] = target: T4, hCD137 (antigen of the ELISA and FACS …); experiment: FACS-based assay on hCD137
[8] = target: T1, His-tagged recombinant human FcγRIIb; experiment: BLI (Fortebio), His-tagged FcγR captured on anti-Penta-His sensor, antibody in solution, steady state analysis
[9] = target: T2, His-tagged recombinant human FcγRIIa; experiment: as above

T3 sequence (Q07011 24-255): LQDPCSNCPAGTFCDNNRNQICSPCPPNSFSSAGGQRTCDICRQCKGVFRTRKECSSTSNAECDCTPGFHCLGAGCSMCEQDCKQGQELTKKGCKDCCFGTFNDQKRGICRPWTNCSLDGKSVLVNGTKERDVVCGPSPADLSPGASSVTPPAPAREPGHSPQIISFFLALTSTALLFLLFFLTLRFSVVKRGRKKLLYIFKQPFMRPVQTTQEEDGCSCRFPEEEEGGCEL

Binder | Kd [1] [nM] | Masking efficiency [2] [fold] | EC50 (read off the curve) [3] [nM] | EC50 [4] [nM] | Masking efficiency [5] [fold] | Masking efficiency [6] [fold] | Kd [7] [nM] | Kd [8] [nM] | Kd [9] [nM]
TY25366 (antibody, human IgG4 S228P, kappa, also called untreated TY25366) heavy: EVQLVESGGGLVQPGGSLRLSCAASGFSLSTGGVGVGWIRQAPGKGLEWLALIDWADDKYYSPSLKSRLTISRDNSKNTLYLQLNSLRAEDTAVYYCARGGSDTVIGDWFAYWGQGTLVTVSSASTKGPSVFPLAPCSRSTSESTAALGCLVKDYFPEPVTVSWNSGALTSGVHTFPAVLQSSGLYSLSSVVTVPSSSLGTKTYTCNVDHKPSNTKVDKRVESKYGPPCPPCPAPEFLGGPSVFLFPPKPKDTLMISRTPEVTCVVVDVEQEDPEVQFNWYVDGVEVHNAKTKPREEQFNSTYRVVSVLTVLHQDWLNGKEYKCKVSNKGFPSSIEKTISKAKGQPREPQVYTLPPSQEEMTKNQVSLTCLVKGFYPSDIAVEWESNGQPENNYKTTPPVLDSDGSFFLYSRLTVDKSRWQEGNVFSCSVMHEALHNHYTQKSLSLSLGK light: not shown | 64.6 | 324 | ~10 |  |  |  |  |  | 
TY24122 (antibody, human IgG4 S228P, kappa) heavy: EVQLVESGGGLVQPGGSLRLSCAASGFSLSTGGVGVGWIRQAPGKGLEWLALIDWADDKYYSPSLKSRLTISRDNSKNTLYLQLNSLRAEDTAVYYCARGGSDTVIGDWFAYWGQGTLVTVSSASTKGPSVFPLAPCSRSTSESTAALGCLVKDYFPEPVTVSWNSGALTSGVHTFPAVLQSSGLYSLSSVVTVPSSSLGTKTYTCNVDHKPSNTKVDKRVESKYGPPCPPCPAPEFLGGPSVFLFPPKPKDTLMISRTPEVTCVVVDVEQEDPEVQFNWYVDGVEVHNAKTKPREEQFNSTYRVVSVLTVLHQDWLNGKEYKCKVSNKGFPSSIEKTISKAKGQPREPQVYTLPPSQEEMTKNQVSLTCLVKGFYPSDIAVEWESNGQPENNYKTTPPVLDSDGSFFLYSRLTVDKSRWQEGNVFSCSVMHEALHNHYTQKSLSLSLGK light: not shown |  |  |  | 0.31 | 1 | 1 | 0.141 | 5.06 | 5.85
